{
  "source": "paper PMC10139975",
  "about": "(iScience, 2023)",
  "binders": {"B1": {"name": "occludin (tight junction protein) (natural protein, human (endogenous in HEK293), UniProt Q16625 1-522, looked up)", "chain": "MSSRPLESPPPYRPDEFKPNHYAPSNDIYGGEMHVRPMLSQPAYSFYPEDEILHFYKWTSPPGVIRILSMLIIVMCIAIFACVASTLAWDRGYGTSLLGGSVGYPYGGSGFGSYGSGYGYGYGYGYGYGGYTDPRAAKGFMLAMAAFCFIAALVIFVTSVIRSEMSRTRRYYLSVIIVSAILGIMVFIATIVYIMGVNPTAQSSGSLYGSQIYALCNQFYTPAATGLYVDQYLYHYCVVDPQEAIAIVLGFMIIVAFALIIFFAVKTRRKMDRYDKSNILWDKEHIYDEQPPNVEEWVKNVSAGTQDVPSPPSDYVERVDSPMAYSSNGKVNDKRFYPESSYKSTPVPEVVQELPLTSPVDDFRQPRYSSGGNFETPSKRAPAKGRAGRSKRTEQDHYETDYTTGGESCDELEEDWIREYPPITSDQQRQLYKRNFDTGLQEYKSLQSELDEINKELSRLDKELDDYREESEEYMAAADEYNRLKQVKGSADYKSKKNHCKQLKSKLSHIKKMVGDYDRQKT"}},
  "target": "T1, GPR110 F663S mutant (C-terminal HA tag) (human, UniProt Q5T601-1 20-910, F663S)",
  "T1 sequence (looked up)": "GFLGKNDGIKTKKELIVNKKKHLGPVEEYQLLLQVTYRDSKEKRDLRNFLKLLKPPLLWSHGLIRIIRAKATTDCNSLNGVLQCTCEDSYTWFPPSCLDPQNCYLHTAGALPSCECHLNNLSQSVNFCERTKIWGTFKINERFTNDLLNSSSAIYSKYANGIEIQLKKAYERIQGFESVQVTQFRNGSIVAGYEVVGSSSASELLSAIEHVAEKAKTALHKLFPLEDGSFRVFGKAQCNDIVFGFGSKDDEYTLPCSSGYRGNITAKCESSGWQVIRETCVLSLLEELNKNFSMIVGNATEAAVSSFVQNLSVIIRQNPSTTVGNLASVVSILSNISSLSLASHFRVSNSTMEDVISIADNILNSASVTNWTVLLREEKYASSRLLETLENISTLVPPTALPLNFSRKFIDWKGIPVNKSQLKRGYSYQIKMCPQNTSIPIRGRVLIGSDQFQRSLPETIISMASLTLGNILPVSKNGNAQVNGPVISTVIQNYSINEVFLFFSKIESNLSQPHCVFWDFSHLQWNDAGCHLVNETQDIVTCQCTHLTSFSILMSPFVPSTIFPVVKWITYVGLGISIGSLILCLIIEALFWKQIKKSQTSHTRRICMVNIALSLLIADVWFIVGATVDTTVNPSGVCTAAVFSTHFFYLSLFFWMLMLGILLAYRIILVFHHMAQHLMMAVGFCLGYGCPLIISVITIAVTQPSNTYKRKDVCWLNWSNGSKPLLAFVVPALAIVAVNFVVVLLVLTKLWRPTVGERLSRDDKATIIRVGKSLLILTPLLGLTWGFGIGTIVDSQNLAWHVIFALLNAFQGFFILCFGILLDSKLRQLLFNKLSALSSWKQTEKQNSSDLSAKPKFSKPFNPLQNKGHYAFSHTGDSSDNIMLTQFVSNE",
  "experiment": "cross-linking + affinity purification with mass spectrometry",
  "data": [
    {"binder": "B1", "values": [
      {"measurement": "fold less than with WT GPR110 (label-free MS quantitation)", "value": 5, "unit": "fold"}
    ]}
  ]
}
